For assay [1], the target named is GDF-8 receptor (cell surface binding proteins on L6 and G-8 myoblasts). Kind of assay: receptor-ligand binding assay with I-125 GDF-8 on myoblasts.
The target is the same in assay [2]. Kind of assay: receptor-ligand binding assay with I-125 GDF-8 on L6 myoblasts.
Assay [3] deals with T1, mature C-terminal myostatin peptide (disulfide-linked C-terminal dimer), purified from CHO cell conditioned … (UniProt O14793 24-375, limits assumed, radio-iodinated (on tyrosine, residues not stated) in the receptor binding assay).
T1 construct: mature; also called GDF-8; mature C-terminal peptide
T1 sequence (looked up): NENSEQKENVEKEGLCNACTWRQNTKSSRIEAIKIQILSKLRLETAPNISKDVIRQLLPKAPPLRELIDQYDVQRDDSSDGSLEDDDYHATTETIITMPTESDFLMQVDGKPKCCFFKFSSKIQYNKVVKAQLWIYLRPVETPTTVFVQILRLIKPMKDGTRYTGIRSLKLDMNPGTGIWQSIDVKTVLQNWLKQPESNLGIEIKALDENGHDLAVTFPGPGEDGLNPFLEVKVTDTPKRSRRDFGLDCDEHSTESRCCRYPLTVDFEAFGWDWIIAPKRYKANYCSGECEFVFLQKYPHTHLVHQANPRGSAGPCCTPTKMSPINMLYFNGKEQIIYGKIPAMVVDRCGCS
Briefly: radio-iodinated myostatin on COS cells transfected with Act RIIB, Scatchard analysis.

One may read the Kd as a measure of binding affinity in units of concentration. Low values mean a tighter complex, high ones a looser complex. In turn, “recombinant human GDF-8 (rhGDF-8) homodimer (from UniProt O14793 267-374) (ligand)” displayed an equilibrium dissociation constant (Kd) in assay [1] of 0.37 nM. Also, the receptors/cell (receptors/cell) in assay [2] turned out to be 5000.

B1: activin type IIB receptor (Act RIIB) expressed on transfected COS cells (receptor)
chain: SGRGEAETRECIYYNANWELERTNQSGLERCEGEQDKRLHCYASWRNSSGTIELVKKGCWLDDFNCYDRQECVATEENPQVYFCCCEGNFCNERFTHLPEAGGPEVTYEPPPTAPTLLTVLAYSLLPIGGLSLIVLLAFWMYRHRKPPYGHVDIHEDPGPPPPSPLVGLKPLQLLEIKARGRFGCVWKAQLMNDFVAVKIFPLQDKQSWQSEREIFSTPGMKHENLLQFIAAEKRGSNLEVELWLITAFHDKGSLTDYLKGNIITWNELCHVAETMSRGLSYLHEDVPWCRGEGHKPSIAHRDFKSKNVLLKSDLTAVLADFGLAVRFEPGKPPGDTHGQVGTRRYMAPEVLEGAINFQRDAFLRIDMYAMGLVLWELVSRCKAADGPVDEYMLPFEEEIGQHPSLEELQEVVVHKKMRPTIKDHWLKHPGLAQLCVTIEECWDHDAEARLSAGCVEERVSLIRRSVNGTTSDCLVSLVTSVTNVDLPPKESSI
B1 registered a Kd in assay [3] of roughly 5 nM.

The values are drawn from patent publication US20110239317A1 (Johns Hopkins, published 2011).
